Reference: the DeepSol protein solubility set

test: soluble on expression in E. coli; label from the status in PepcDB or PDB records

Sequence	soluble on expression in E. coli
MGSDKIHHHHHHMSESAESVDLIKLPVSKLTLGMFVSAIDKNDQGRLAIANAGQIKHKDAILKLTKNGIKYVWVDTERSAEHCGFKRKVSNDSQVKKSIVTREKQQEQAQVILTEAKDLIRKVLSETFEGKAIEVAPFEALADSMIESVLLDEDALKCMSALRTKDAYLLEHSVNVAFLLVTFGKYLKLDRSMLREMAVGGILHDIGKIKVDNKVLHKPGKLTPEEFEHMKLHQVYALEIMSETKGLSQISKDVCLMHHEKLDGRGYPRGLKGDEIPLHGRMSCIVDIFDALTATRCYKEAMSPAAAFKILLSLTPFHLDQQLVYDFIRCIGVYPVGSLVELSDGRVGIVWASKDRDALHPIVKCFYSLKAKRYTEVVIVDLLKSELHIERGVSPSSLDIDPTPFY	not soluble
MRKVKTDNSDLIEYVNTVKELKNHIPIEEYRNEYRKLRSDDIPLVKAQKFKSAHTEVRRLEKKRESLIEYFIDELNPISSSKANTSARSTGNLDLFNERVLYRKAISEKSDEEIVALVIKQRTEAAVEFQRSIEQSLEQLSRISSEFEPSNQKRRKMSL	soluble
MAVMSYIDAITLAMREEMERDEKVFVLGEDVGKKGGVFKATHGLYDQFGEDRALDTPLAESAIAGVAIGAAMYGMRPIAEMQFADFIMPAVNQIVSEAAKIRYRSNNDWTCPITVRAPFGGGVHGALYHSQSVEAMFANQPGLKIVIPSTPYDAKGLLKAAIRDEDPVLFFEHKRAYRLIKGEVPEDDYVLPIGKADVKREGDDITVITYGLCVHFALQAAEKLAQDGISAHILDLRTVYPLDKEAIIEAASKTGKVLLVTEDNKEGSIMSEVAAIIAENCLFDLDAPIARLAGPDVPAMPYAPTMEKFFMVNPDKVEKAMRELAEF	not soluble
MGSDKIHHHHHHMDIRSLKLYLHLCDSLHFAKTAEQMHMSPSTLSRTLQRLEDEVGGKLFERDNRSVALTHAGKEFKLFAEHTLSQWLSLKGKVDPQQAQLHGQLSLYCSVTAAYSHLPKLLDRFRSIHPNVDIKLATGDAANAVNELNRNRADIAIIALPDNLASSLFFTAIDKVPLSLIVPTITCPVQQAISQANIAWQDLPYIVPEHGPGRQRADNWFKAMGFKPNIYAQVAGQEAIASMVALGCGVAISPEVVINNSPVRDRIQMLASPITIPAFELGFCCKKKRLEEAVLKAFLASWAIE	not soluble
MAHHHHHHMAANGCFIAALIARTHDRLPLCSYTDDNYSNANVIRQQEQRIVERMESPAGGTDRAAAKGSYYESFDHKDNVYFAFQDAATDLTLVVAVNKLLLRNSGDINGMNKLACGLLDLIFSEFIQMYTPAEIGAPNVRAYQFIKFDATLRKCVTRIMQQDRTTGDRIV	not soluble
MEYFNVGKIVNTQGLQGEMRVLSVTDFVEERFKKGQVLALFDEKNQFVMDIEIASHRKQKNFDIIKFKGMYHINDIEKYKGFTLKVAEDQLSDLKDGEFYYHEIIGLDVYEGEELIGKIKEILQPGANDVWVVERHGKRDLLLPYIPPVVLEVDLSNQRVQVELMEGLDDEDLEHHHHHH	soluble
MSLQSDMLAQSDMLACREMIKEGSHTFHAASKVLPRRISDPAIALYAFCRVADDAVDLGLDRAAAVELLKDRLDRACRGVPRAYPSDRAFADVVARFSIPPAIPEALIEGLEWDAQGRRFETLSDLYSYCARVAGTVGVMMTLVMGQRKPDIVARACDLGCAMQLTNIARDIGEDARNGRIYMPLSWMREAGLDPETWLANPKFTPEIASIVKRLIDTADALYDRATLGIANLPRSCRPGIFAARALYAEIGREVERSGLDSVSSRAVVSTGRKLAVLARLLAFQETEWAPAKYLPAKFGDMEETKFLVDAVIAHPVREGHHHHHH	soluble
MAHHHHHHMSSAFLAQLPFVGSSSTLGWQHDDVARSYMEHVLHRARVLLPRRGWRIGLIKEFYPRGATLLGLNVNAGSEVCIRFRVPGKKNEFLPFHEVLCTALHEFTHCVHSRHDRAFWNLYYDLVKECEALEITMIQQGMRLYPAISSTPMSCTGTASQQSRSGREGRTAATASSARGGGRRLGNGGARGGGRGAGGGMSTGSRHVAQTVIKAGRAVSSSSSSPPSSAAFPGEGRRLGGGGFRQYDAPIGFTPTRDALRRILAGAAERRLARTPPLAATVTLGSHPLALSLHNTTFPQRDEGQSEVDDDDAPDCVPHSLSGHEDGGGWNCPRCGFRNDDNVVGSCAFCADCDDEDEGEATWRKRPRLDSDHSPLETPTIVVSLATASKTAPTQQLQQQQLECTAEEHYIVVSDEDDS	soluble
QVQLVESGGGTVPAGGSLRLSCAASGNTLCTYDMSWYRRAPGKGRDFVSGIDNDGTTTYVDSVAGRFTISQGNAKNTAYLQMDSLKPDDTAMYYCKPSLRYGLPGCPIIPWGQGTQVTVSS	soluble
MASWSHPQFEKGASTSLYKKAGRMSKFTWKELIQLGSPSKAYESSLACIAHIDMNAFFAQVEQMRCGLSKEDPVVCVQWNSIIAVSYAARKYGISRMDTIQEALKKCSNLIPIHTAVFKKGEDFWQYHDGCGSWVQDPAKQISVEDHKVSLEPYRRESRKALKIFKSACDLVERASIDEVFLDLGRICFNMLMFDNEYELTGDLKLKDALSNIREAFIGGNYDINSHLPLIPEKIKSLKFEGDVFNPEGRDLITDWDDVILALGSQVCKGIRDSIKDILGYTTSCGLSSTKNVCKLASNYKKPDAQTIVKNDCLLDFLDCGKFEITSFWTLGGVLGKELIDVLDLPHENSIKHIRETWPDNAGQLKEFLDAKVKQSDYDRSTSNIDPLKTADLAEKLFKLSRGRYGLPLSSRPVVKSMMSNKNLRGKSCNSIVDCISWLEVFCAELTSRIQDLEQEYNKIVIPRTVSISLKTKSYEVYRKSGPVAYKGINFQSHELLKVGIKFVTDLDIKGKNKSYYPLTKLSMTITNFDIIDLQKTVVDMFGNQVHTFKSSAG	soluble
MGSDKIHHHHHHMVEAQRVKEDEDAIRQALASLKNATGIPVTMYASVQSDSRLLINQWVGLRTPALQNLIIDNGVGVGGRVLKTRRPVGVSDYTRANVISHDLDPVIQDEGLHSIVAVPVIVQREVRGVLYVGVHSPVRLGDKVIEEVTMTARVLEQELAINSASRRSDNPRGGVAKQGRMMNGAEWEQIRSTHSKLRMLANRIEQEELRQELEELCDQMVAPVHVKQTTKLSARELDVLSCVALGHTNVEAAEEMGIGAETVKSYLRSVMRKLGAHTRYEAVNAARRIGALP	not soluble
MSLFRVGRKIARSIHKAITSEDSVDVSELDGVRSLHLGSDTIQSSMRIKDPYALELRYSRGMMVYLLFQKQPRDLVVLGLGGGSIPKYVYHHLPQVKTRVVEINPRIIEVARSHFFTPENDERFEIIEGDAAAFLRDNPATTSMLMMDAFGSNGLPPDLCSQDFFDSCFEALTLDGMCAINLWGSDKHYDVYLQRIETSFHGRILVMPTGRPGNVVVFGFKRAPNDLRWSTLRVRAKALEAEHKIEFLEFVERLREHNPSTSNRLLLESEGHHHHHH	soluble
MAMTKLDATLAMLKELTDARGIAGNEREPREVMKKYIEPFADELSTDNLGSLVAKKVGEENGPKIMVAGHLDEVGFMITQIDDKGFLRFQTVGGWWSQVMLAQRVTIVTRKGDVTGVIGSKPPHILPPEARKKPVEIKDMFIDIGASSQEEAMEWGVRPGDQVVPYFEFQVMKNEKMLLAKAWDNRIGCAIAIDVLKQLKDEKHPNVVYGVGTVQEEVGLRGAKTSANYIKPDIAFAVDVGIAGDTPGVTSKEAQSKMGDGPQIILYDASVIGHTGLRDFVVDVADELQIPYQYDSVAGGGTDAGAIHIAVNGIPSMAITIATRYIHSHAAMLHRDDYENAVKLIVEVIKRLDKEAVHNITFN	not soluble
MEIQIVTGFLGAGKTTFLNRYLPLLSGKTVVIENEFGDIGIDGDRIQEDIPVREIFAGCICCSLAMDFRKGIKEIAENFHPDRILIEPSGVGRLTDIVKACQMAREREKVSLQITKLIAIVDMASFEEYIEGFGAFYQDQIERAGLLLLSHVEAENKAQKEIIIGRLKELNPDAILYDGDWRQLENEELLKLLEEAPDYDEDARRDAAFAALPADKVFSSVSFMDLPQMRIEDLEAIMKALEKEEYGYILRAKGWIETMEKGLVHFDFTPTVSKYREEKNPAGTGGEAVVIGCGLNQAALEMLFRRKNILEHHHHHH	soluble
MLKKKVNNDAGKTFILISSSCSSCQKAIEYFKENNLSYTIENFYKKPISDKRFRDILSLSEDGTESLFSKRADQIRSNTNQSVEDLTIPELIKLIRERPSILRRPIIIQYNSSGIPKRMRIGYNAAEIKVFERSLMEPKVRTVKK	soluble
MAHHHHHHMFYTGINEPRPTAMNFSFDGLHFVSAHTDDAVRFIDVGNMTNTDVIICDAFGVHNVRYTHSSSVVCVAPRFHLDGHLHLLNTETSQFFGEMAYLNDAESEMLPVANTPVYSTLAQCPATDVIGAVVVAKGRLALFHPLISGCIAATPERSIVGSRACVQFSRDGHRIAIGDDHRIVLLDRRSFFGAPLAVLENKHVFTTSTSLTRCKGLEFSADANRLLLTSSSGEVVVYDWLRGETVANYFHGDARRHFVGSADAIGAQHVFPYQSASPILQLTSSMTGGRHLLVYAGCPSNSAASTRQGRLLYELQSKDSDVPVAIAVNPRLQLAATAARSITWWAFHNSVVEAYATLTEAGMTAAD	not soluble
MGSDKIHHHHHHMVIELKNEKVTVQFKEFGGALSSIKDQDGIEYLWQGNPAYWSSQAPVLFPICGSLRNDKGIYTSKKHSHRYGSIPRHGLVRKKNFRFEQLGKDSVVFTITPDKEMLMQYPYHFELKIIYTLKHTTIRTEYQVINKEKESIMPYFIGGHPGLNCPLFAGDRYEDYYLEFEKEETCTVPKSFPDTGLLDLQDRKIFLKGQKYLDLDYSLFTHDAITLDNLQSRSVSLRSKNHGGGLRLDFADFPYLILWSTANKSPFIALEPWSGLSTAVDESDYFEEKRNVSFVEPGQFDRNYFDITVL	not soluble
MPRINSPHITGNYPSTPFIFYIPTSGQRPMQWSAEKLPEGLELDSKTGIISGVMTSKGDYTVTLKAENALGVSVKQLVIRIGDELLLEHHHHHH	not soluble
SLRTEQEMMDVILTIAKKEERIRAVYMNGSRTNSNVPKDLFQDYDIVYVVTDIAPFIQEQQWLKKFGEPLMIQEPDQLDAGIGVNRDFSRRYAFLMLFTDGNRIDLTLQTKETMREVYENDTLTVPLLDKDHCLPPIPPPSDSDYHVKEPTEGEFISCTNNFWWCLQNVAKGIWRDELPYAKQMFELTTRASLDEMVNWWIGLENDFQLSTGKLGKYFKKHLPPPYWAMYEATYANSDYEQMWESIFIACDLFRTLAKDVAAACSFTYPETDDRNMTDYLHRVKNLSADATDM	soluble
MGWTCERVELLKKFWSEGLSASQIAAQLGGVSRNAVIGKVHRLKLPGRGKTAQGGGRVQKALVGVSSSPVRMRRTPSTVLPTNTASCSVGATALKVDVVVEDVTEVDLPEKSNVVVPISRQLNLLQLSENTCRWPVGDPLSPDFHFCGADSGENSPYCAFHAKIAFQPISERRRIRILEHHHHHH	not soluble
MGSSHHHHHHSSGLVPRGSHMEHAFTPLEPLLPTGNLKYCLVVLNQPLDARFRHLWKKALLRACADGGANHLYDLTEGERESFLPEFVSGDFDSIRPEVKEYYTKKGCDLISTPDQDHTDFTKCLQVLQRKIEEKELQVDVIVTLGGLGGRFDQIMASVNTLFQATHITPVPIIIIQKDSLIYLLQPGKHRLHVDTGMEGSWCGLIPVGQPCNQVTTTGLKWNLTNDVLGFGTLVSTSNTYDGSGLVTVETDHPLLWTMAIKS	soluble
